Measured values as given in article PMC7817693.
“And” between values parts separate entries of the source, which are not always exact repeats. Equal entries are not always repeated.

Target: p53 (94-393) WT, thermostable deltaN (Homo sapiens) (UniProt P04637)
Test: fluorescence polarization
Details: FP at 25 °C, 2.5 nM FAM-dsDNA, 200 or 275 mM NaCl, 20 mM bis-tris propane pH 6.8, 5% glycerol, 0.1 mg/ml BSA, 0.5 mM TCEP, 10 min, mean of n = 2

Sequence of p53 (94-393) WT, thermostable deltaN (Homo sapiens) (P04637 94-393, stated change not applied): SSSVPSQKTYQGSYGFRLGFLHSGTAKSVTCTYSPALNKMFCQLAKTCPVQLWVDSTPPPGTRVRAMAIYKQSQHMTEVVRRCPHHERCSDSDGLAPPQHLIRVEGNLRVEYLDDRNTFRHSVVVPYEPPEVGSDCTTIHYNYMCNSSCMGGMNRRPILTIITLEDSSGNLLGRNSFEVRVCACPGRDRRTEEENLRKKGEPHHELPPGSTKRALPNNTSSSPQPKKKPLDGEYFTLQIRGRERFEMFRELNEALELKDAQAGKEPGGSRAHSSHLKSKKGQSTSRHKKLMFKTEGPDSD

| Sequence | Kd | further results |
| --- | --- | --- |
| ATGATGATAGACAAGTCAGGACTTAACTATATGATG (double strand) [MDM2 RE] | 20 nM and 97 nM | – |
| ATGATGATAGGCATGCCTAGGCATGCCTATATGATG (double strand) [6FJ5_8/18 I/C] | – | Kd (inosine (written as G): strand 2 nt 21 and 11 (opposite RE positions 8 and 18), supplement also prints I at strand 1 nt 21 (RE position 13), Table 1 prints G there): 8 nM and 58 nM |
| ATGATGATAGGCATGTCCCAACATGCCCATATGATG (double strand) [APBB2 RE] | 10 nM and 40 nM | – |
| ATGATGATGAACATGCCCCAGCATGTTGATATGATG (double strand) [p21_8/13] | 33 nM and 99 nM | – |
| ATGATGATGAACATGTCCCAACATGTTGATATGATG (double strand) [p21 RE] | 26 nM and 23 nM | – |
| ATGATGATGAACGTGTCCGGACAGGTCGATATGATG (double strand) [NOXA_3/13] | 23 nM and 60 nM | – |
| ATGATGATGAGCGTGTCCGGGCAGGTCGATATGATG (double strand) [NOXA RE] | 45 nM and 446 nM | – |
| ATGATGATGGGCAGGCCCGGGCTTGTCGATATGATG (double strand) [BAX_8/13 I/C] | – | Kd (inosine (written as G): strand 1 nt 21 (RE position 13), strand 2 nt 21 (opposite RE position 8)): 9 nM and 83 nM |
| ATGATGATGGGCAGGTCCGGACTTGTCGATATGATG (double strand) [BAX_8/13] | 8 nM and 40 nM | – |
| ATGATGATGGGCATGTCTGGGCATGTCTATATGATG (double strand) [3Q05 pdb RE] | 6 nM | – |
